Results on three molecules are retold here after PMC9263151, “Structural and biochemical analyses of the flagellar expression regulator DegU from Listeria monocytogenes”.

Data set [1] concerns the target DNA-binding domain of Listeria monocytogenes DegU (lmDegUDBD) (Listeria monocytogenes ATCC 15313) (UniProt Q6DL91). As to the kind of experiment: cross-linking; 5 μg protein in 20 mM Hepes pH 7.4, 300 mM sodium chloride, 5 mM β-mercaptoethanol with EDC and sulfo-NHS, 5 min at room temperature; SDS-PAGE, Coomassie staining.
The target is the same in data set [2]. Put plainly: crystal structure; lmDegUDBD alone, two chains (A and B) in the asymmetric unit; crystals from 22% PEG 3350, 0.1 M Tris pH 8.0, 18 °C; 2.39 Å.
In a further data set the target is lmDegUFL (Listeria monocytogenes ATCC 15313, UniProt Q6DL91 1-228). Put plainly: fluorescence polarization; unphosphorylated. The conditions noted are these: protein: recombinant; tags: C-terminal His6; chain copies: 2; blunt. For orientation: In fluorescence polarisation assays a small probe gives low polarisation when free and higher when bound to something large.

A further data set deals with T1, lmDegUDBD (Listeria monocytogenes ATCC 15313, UniProt Q6DL91 159-228).
T1 sequence: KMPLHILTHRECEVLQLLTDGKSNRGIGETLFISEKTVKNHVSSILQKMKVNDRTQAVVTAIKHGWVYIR
As to the kind of experiment: fluorescence polarization. Conditions: protein: recombinant; tags: N-terminal His6 removed by thrombin; chain copies: 2; blunt.

Another data set addresses lmDegUFL D55E (Listeria monocytogenes ATCC 15313, UniProt Q6DL91 1-228, D55E). As to the kind of experiment: fluorescence polarization; affinity not significantly changed vs lmDegUFL. Conditions: protein: recombinant; tags: C-terminal His6; chain copies: 2; blunt.
The next data set deals with lmDegUFL D55N (Listeria monocytogenes ATCC 15313, UniProt Q6DL91 1-228, D55N). Put plainly: fluorescence polarization; comparable to lmDegUFL. Conditions: protein: recombinant; tags: C-terminal His6; chain copies: 2; blunt.
The target of another data set is lmDegURD (Listeria monocytogenes ATCC 15313, UniProt Q6DL91 1-143). As to the kind of experiment: EMSA; no shift. The conditions noted are these: protein: recombinant; tags: N-terminal His6 removed by TEV; chain copies: 2; blunt.

Broadly, the stoichiometry N is a count of units in the complex or per binding partner. As to “DNA-binding domain of Listeria monocytogenes DegU (lmDegUDBD) (from UniProt Q6DL91 159-228) (domain or fragment)”, the stoichiometry N in data set [1] and in data set [2] was 2 in each case.

B1: fliN-gmaR operator 36-bp dsDNA, fluorescein (dsDNA)
DNA 1: CGAGTAGGTCAAAAGGATTGGGTATGAAGAACCTTT
DNA 2: AAAGGTTCTTCATACCCAATCCTTTTGACCTACTCG
For orientation: Kd means the concentration at which binding is half-saturated. Take B1: the equilibrium dissociation constant (Kd) with lmDegUFL amounted to 0.173 ± 0.026 µM; with lmDegUDBD, 6.7 ± 2.3 µM. For the same molecule, the binding result with lmDegUFL D55E and in the data set with lmDegUFL D55N was “binds” each time.

B2: fliN-gmaR operator 36-bp dsDNA, unlabeled (dsDNA)
DNA 1: B1 DNA 1
DNA 2: B1 DNA 2
As for B2, in the data set with lmDegURD, the binding result is “no binding”.
